The subject of data set [1] is His-tagged Cripto (a TGF-a family member).
Data set [2] has as its system T1, first Kunitz-type domain of the TFPI-3 protein (TFPI-3-1), His-tagged, expressed in E. coli.
T1 sequence: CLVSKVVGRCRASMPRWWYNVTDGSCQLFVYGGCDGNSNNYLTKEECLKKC

For the next data set, the target named is Trypsin (Sigma). Kind of data set: cell-based or functional assay.

With Trypsin (Sigma), the “trypsin activity on TAME substrate, same concentrations of Cripto as control” value in data set [1] is reported as “no trypsin inhibiting activity could be observed”. Further, in data set [2], the “trypsin activity on TAME substrate (absorbance at 247 nm), 1.25 dose of TFPI-3-1” value was “did not appear to inhibit trypsin activity at 1.25 and 2.50 mg doses”; the “trypsin activity on TAME substrate (absorbance at 247 nm), 2.50 dose of TFPI-3-1” value was “did not appear to inhibit trypsin activity at 1.25 and 2.50 mg doses”.
In the data set with Trypsin (Sigma), “first Kunitz-type domain of the TFPI-3 protein (TFPI-3-1), His-tagged, expressed in E. coli (from UniProt O43291 38-88)” gave a trypsin activity inhibited, 5.00 dose of TFPI-3-1 of 60%; a trypsin activity left against buffer only samples, 10 of TFPI-3-1, duplicate samples of 7%; a trypsin activity left against the buffer-only control, 10.00 dose of TFPI-3-1 of 13%.

Values taken from patent US20010029034A1.
